Test results taken from paper PMC10018367.
Like-named read-outs stand apart in the source and are kept apart here.

What was measured:
Experiment in all cases: EMSA
PARP1 [1] = target: T1, PARP1 (Homo sapiens, UniProt P09874 1-1014)
PARP1 [2] = target: T1, PARP1; remark: listed apart in the source
PARP1 [3] = target: T1, PARP1; remark: listed apart in the source
PARP1 [4] = target: T1, PARP1; remark: listed apart in the source

T1 sequence (P09874 whole entry): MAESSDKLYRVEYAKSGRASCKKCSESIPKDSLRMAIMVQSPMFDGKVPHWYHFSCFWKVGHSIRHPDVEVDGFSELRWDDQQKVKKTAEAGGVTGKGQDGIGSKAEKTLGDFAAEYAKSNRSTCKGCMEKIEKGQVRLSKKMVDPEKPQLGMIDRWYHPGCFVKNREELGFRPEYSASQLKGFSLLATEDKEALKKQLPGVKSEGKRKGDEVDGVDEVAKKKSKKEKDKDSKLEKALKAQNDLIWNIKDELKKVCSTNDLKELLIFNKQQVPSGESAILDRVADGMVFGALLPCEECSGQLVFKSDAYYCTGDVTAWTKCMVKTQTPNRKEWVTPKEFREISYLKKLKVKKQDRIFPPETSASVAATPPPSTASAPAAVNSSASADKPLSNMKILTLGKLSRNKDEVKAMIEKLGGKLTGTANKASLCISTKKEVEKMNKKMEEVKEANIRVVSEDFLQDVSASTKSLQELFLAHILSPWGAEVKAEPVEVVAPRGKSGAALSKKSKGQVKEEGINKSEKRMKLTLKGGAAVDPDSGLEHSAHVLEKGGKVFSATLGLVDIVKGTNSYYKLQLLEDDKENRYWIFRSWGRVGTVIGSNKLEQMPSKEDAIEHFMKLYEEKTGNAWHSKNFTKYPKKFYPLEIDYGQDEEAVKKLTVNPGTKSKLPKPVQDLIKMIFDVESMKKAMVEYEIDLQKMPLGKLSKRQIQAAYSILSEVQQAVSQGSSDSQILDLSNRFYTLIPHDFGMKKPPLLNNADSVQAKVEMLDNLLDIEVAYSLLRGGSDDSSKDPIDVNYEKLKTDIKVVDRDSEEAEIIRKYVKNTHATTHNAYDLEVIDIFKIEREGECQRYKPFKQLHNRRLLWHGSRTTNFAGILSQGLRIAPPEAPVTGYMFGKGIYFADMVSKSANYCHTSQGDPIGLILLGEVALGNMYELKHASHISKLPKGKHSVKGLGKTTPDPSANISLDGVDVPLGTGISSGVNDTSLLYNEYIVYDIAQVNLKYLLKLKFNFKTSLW

AAAGAUGUCCUAGCAAGGCAC (ssRNA) [ssRNA JYM3704]: no binding (PARP1 [1]).

B1: ssDNA JYM3702 (ssDNA)
DNA: GGGTGAACCTGCAGGTGGGCGGCTGCTCATCGTAGGTTAGTTGGTAGAATTCGGCAGCGTC
B1: binds (PARP1 [2]).

B2: D-loop (JYM3702 + JYM3703 + JYM3705) (structured_DNA)
DNA 1: GGGTGAACCTGCAGGTGGGCGGCTGCTCATCGTAGGTTAGTTGGTAGAATTCGGCAGCGTC
DNA 2: GACGCTGCCGAATTCTACCAGTGCCTTGCTAGGACATCTTTGCCCACCTGCAGGTTCACCC
DNA 3: AAAGATGTCCTAGCAAGGCAC
B2: binds (PARP1 [3]).

B3: R-loop (JYM3702 + JYM3703 + JYM3704) (mixed)
DNA 1: GGGTGAACCTGCAGGTGGGCGGCTGCTCATCGTAGGTTAGTTGGTAGAATTCGGCAGCGTC
DNA 2: GACGCTGCCGAATTCTACCAGTGCCTTGCTAGGACATCTTTGCCCACCTGCAGGTTCACCC
RNA: AAAGAUGUCCUAGCAAGGCAC
modifications: RNA strand 3
B3: binds (PARP1 [4]).
